According to patent US20190119379A1 (BAYLOR COLLEGE OF MEDICINE, published 2019):

Target: T1, human CD47 on OV10 315 cells (human, UniProt Q08722 19-323)
T1 construct: whole, on cells
Test: FACS for Fc on YFP-negative OV10 315 cells 24 h after infection with SIRPα-Fc-VV

T1 sequence (Q08722 19-323): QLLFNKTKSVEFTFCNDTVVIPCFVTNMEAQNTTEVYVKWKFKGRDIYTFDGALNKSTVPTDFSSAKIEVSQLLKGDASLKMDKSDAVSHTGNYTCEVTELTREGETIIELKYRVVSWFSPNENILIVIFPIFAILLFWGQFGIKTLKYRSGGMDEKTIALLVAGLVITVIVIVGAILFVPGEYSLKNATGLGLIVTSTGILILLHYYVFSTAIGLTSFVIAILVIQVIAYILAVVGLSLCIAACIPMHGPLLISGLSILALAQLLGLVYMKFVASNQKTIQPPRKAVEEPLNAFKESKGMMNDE

B1: SIRPα-IgG4 Fc with derivative (CV1) of SIRPα ectodomain (Fc fusion)
chain: EEELQIIQPDKSVLVAAGETATLRCTITSLFPVGPIQWFRGAGPGRVLIYNQRQGPFPRVTTVSDTTKRNNMDFSIRIGNITPADAGTYYCIKFRKGSPDDVEFKSGAGTELSVRAKPSAAAPPCPPCPAPEFLGGPSVFLFPPKPKDTLMISRTPEVTCVVVDVSQEDPEVQFNWYVDGVEVHNAKTKPREEQFNSTYRVVSVLTVLHQDWLNGKEYKCKVSNKGLPSSIEKTISKAKGQPREPQVYTLPPSQEEMTKNQVSLTCLVKGFYPSDIAVEWESNGQPENNYKTTPPVLDSDGSFFLYSRLTVDKSRWQEGNVFSCSVMHEALHNHYTQKSLSLSPGK
notes: Secreted by tumor cells transduced with the lentiviral vector pCDH.CMV.SIRPα-Fc.EF1.GFPpuro or infected with SIRPα-Fc-VV; It was never purified; also called SIRPα-Fc; SIRPα-FC
  binding result: binds
